Laboratory results from PMC12340889.

How the values were obtained:
[1] = biological target: C. crescentus DriD (wild type) (C. crescentus); assay: fluorescence polarisation; DriD (WT or mutant) first bound to fluoresceinated target DNA with 100 μM ssDNA, then increasing αCTD titrated in; 25 mM Tris-HCl pH 7.5, 150 mM NaCl, 2.5 % glycerol; apparent Kd; three technical replicates
[2] = system: DriD(G18K-A20K) (Caulobacter crescentus); assay: fluorescence polarization; conditions: FP: 25 mM Tris-HCl pH 7.5, 150 mM NaCl, 2.5% glycerol, 100 uM ssDNA, temperature not stated; cryo-EM: 20 mM Tris-HCl pH 8, 5 mM MgCl2, 100 mM NaCl, 1 mM bME …
[3] = system: DriD WT (Caulobacter crescentus); assay: fluorescence polarization; conditions: FP: 25 mM Tris-HCl pH 7.5, 150 mM NaCl, 2.5% glycerol, 100 uM ssDNA, temperature not stated; cryo-EM: 20 mM Tris-HCl pH 8, 5 mM MgCl2, 100 mM NaCl, 1 mM bME …

Row | Kd [1] [nM] | Substance | Kd [2] [nM] | Kd [3] [nM]
1 | 30000 | C. crescentus α subunit CTD (α residues 161–248) (domain or fragment) |  | 
2 |  | ATACGACAGTAACTGTCGTAT (double strand) [F-DriD target DNA] | 9.2 | 7.1
